Measurements from patent publication US20070134734.

Experiments:
[1] = molecular target: GST-fused stress-induced phosphoprotein 1 (STIP1) (GST gene fused to the N-terminus), cell-free synthesized (UniProt P31948)
[2] = molecular target: GST-fused eIF4B (GST gene fused to the N-terminus), cell-free synthesized (UniProt P23588)
Sequence of GST-fused eIF4B (GST gene fused to the N-terminus), cell-free synthesized (P23588 whole entry, the tested form may be a part): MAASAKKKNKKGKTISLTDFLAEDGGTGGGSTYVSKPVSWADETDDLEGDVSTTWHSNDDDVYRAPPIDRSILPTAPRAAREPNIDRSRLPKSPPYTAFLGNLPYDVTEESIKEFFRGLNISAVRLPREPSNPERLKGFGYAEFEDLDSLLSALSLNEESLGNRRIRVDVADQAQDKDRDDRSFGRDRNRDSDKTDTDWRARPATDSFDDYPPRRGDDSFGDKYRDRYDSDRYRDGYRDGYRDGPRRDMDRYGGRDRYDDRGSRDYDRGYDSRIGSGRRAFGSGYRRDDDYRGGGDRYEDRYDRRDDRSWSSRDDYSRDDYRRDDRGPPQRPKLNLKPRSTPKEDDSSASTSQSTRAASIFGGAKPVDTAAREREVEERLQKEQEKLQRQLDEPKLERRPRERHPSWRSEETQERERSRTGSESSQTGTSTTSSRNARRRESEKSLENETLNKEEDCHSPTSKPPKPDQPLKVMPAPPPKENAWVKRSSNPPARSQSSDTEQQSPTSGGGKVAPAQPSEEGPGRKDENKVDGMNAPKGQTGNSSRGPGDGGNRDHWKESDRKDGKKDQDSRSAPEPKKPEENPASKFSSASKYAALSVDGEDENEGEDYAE

human CaMKIIδ protein (calmodulin kinase II delta), synthesized in a wheat embryo cell-free protein synthesis system
in vitro phosphorylation assay ([γ-32P]ATP, GST-fused substrate on glutathione resin, SDS-PAGE autoradiography) [1]: there was reproduced the reaction in which GST-fused eIF4B and STIP1 were phosphorylated by CaMKIIδ | in vitro phosphorylation assay ([γ-32P]ATP, GST-fused substrate on glutathione resin, SDS-PAGE autoradiography) [2]: there was reproduced the reaction in which GST-fused eIF4B and STIP1 were phosphorylated by CaMKIIδ
